± gives the uncertainty stated by the source.
Assay: amyloid nucleation score (Sup35N fusion, yeast selection) (log enrichment); library NNK2; higher = more nucleation; inactive = no reads after selection
Method in brief: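 Nucleation score is defined as the DiMSum log enrichment of output over input reads, with centring on the mode score of non-aggregating sequences. A minimum of 100 input reads was required for each sequence. Reads came from Illumina sequencing of plasmid inserts from psi-negative yeast expressing Sup35N fused to peptides of 20 random codons, induced with 100 μM copper sulfate for 24 hours and grown 7 days at 30°C on medium lacking adenine and uracil.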

Substance | amyloid nucleation score
MWNQDLSFFCITRDIKVCTF | 4.87 ± 0.06
MWSVLNHLRSDSDFSNA | 1.13 ± 0.61
MYCYSHDQCESLGQRSFGDT | 0.218 ± 0.8
MYISKVFDALLLLRREPRHR | inactive
MYLCTGFASSFIKSHHITWR | -0.098 ± 0.43
MYNRG | 3.87 ± 0.11
MYVDLKLSYNHSPATLW | 5.22 ± 0.061
MYVMTHNL | 0.776 ± 0.44
NAHMSRRGYSSMMRCY | inactive
NARITVLGSHPWLCPGKVSV | 1.06 ± 0.54
NARVL | -0.853 ± 0.64
NASYRCNM | inactive
NCARH | -0.215 ± 0.3
NCAVFTSGR | -0.478 ± 0.63
NCHFTCMPAACGETVKTY | 0.597 ± 0.45
NCIFDMLLVLR | inactive
NCLEIQFWRLSSRYVGKFVM | -0.113 ± 0.32
NCLSM | 3.36 ± 0.081
NCPRWICAILYEYHAVRRRV | 0.713 ± 0.49
NCPSPLVWDCVLVVGDPVAC | 0.217 ± 0.25
NCSSIF | inactive
NCYRLWWPVLSTWWRFFI | 0.047 ± 0.35
NDCMGWH | inactive
NDLSNGSVESMRQYYYLREN | -0.724 ± 0.3
NDRNYLSGSGESELLPDCND | -0.434 ± 0.76

Substance | amyloid nucleation score
NDSNYKPANSYRSPSGNRMV | inactive
NDSQTTLGLFDCRVREADHR | -0.003 ± 1.1
NDTAATGANDETSDFYTEYC | 0.376 ± 0.66
NDTWR | 3.68 ± 0.049
NDVNDLMGCTNQRGMYPQII | inactive
NDWLSHGR | 4.31 ± 0.054
NDYEPRCMFGRIVCSNGPEM | 1.14 ± 0.42
NEEWSFCKS | -0.165 ± 1
NENKILSDL | -0.585 ± 0.36
NFCALSKCT | -0.618 ± 0.63
NFENCVFWYNLYCNFD | 7.516 ± 0.047
NFFAHRVCHYFVIRCGLIT | inactive
NFHLEIIFPRQLRLNRSPWV | 3.96 ± 0.13
NFIVW | -0.417 ± 0.64
NFKCFTRRVNWESYITEVVR | 3.19 ± 0.068
NFLRML | -0.139 ± 0.21
NFLWVLSRKSHGIPYRKFSN | inactive
NFNFNCA | 3.87 ± 0.093
NFSAFGRFNLNLWMNNITRL | 4.05 ± 0.077
NFSDFRCLL | -0.031 ± 1
NFSIL | -0.184 ± 1.1
NFTIHTWVYMHRVNPPGILN | inactive
NFVNSFRVPISVYKVYLYGG | 4.49 ± 0.08
NGFCYFDGLSLSYSKLTGMM | inactive
NGFVSSSRSFICFRWKWRYY | 0.255 ± 1.1

Substance | amyloid nucleation score
NGGAVFCVHACYGFRGRYER | 5.05 ± 0.045
NGGDRVLSFDIIIAGSLVAK | -0.354 ± 0.39
NGIRQDNMGGVHVPTGSTII | -0.277 ± 0.39
NGLGLTIWL | 0.448 ± 0.22
NGLQRLITNSKFPTRWTWFG | 0.206 ± 0.33
NGQYDDTG | 2.32 ± 0.14
NGSSKIERDQRRWGQKAVDT | 2.83 ± 0.089
NGTLRQYDRSDYINKIGDSN | -1.02 ± 0.38
NGVIRVSWSTR | 6.48 ± 0.087
NGVPT | -1.43 ± 1.1
NGVSMESRFQFSDWWNPTYY | -0.847 ± 0.64
NGYRNFIRGHDSRFRGVTTT | 4.66 ± 0.05
NHIFYRMCSNLTAKYIRLTS | inactive
NHLMSMFDCSDTQMSSSSIA | 0.308 ± 0.32
NHTSNIGSRGTAFFWVLR | 7.187 ± 0.069
NICELPITHKVGSWV | 0.518 ± 0.38
NICRM | -0.058 ± 0.53
NIFNRA | inactive
NIFRESEAERRALNKFYMSF | 0.04 ± 0.76
NIFRRLLSIIIVFDQDRRKM | -1.01 ± 1.1
NILIRASGVRA | inactive
NINMWSLCRFLWDAFARR | 0.378 ± 0.26
NIQPEK | -0.587 ± 0.39
NIVLTLSRGF | 2.56 ± 0.1
NIVRYAMELCDIN | 4.08 ± 0.1

Substance | amyloid nucleation score
NIVVPRRL | 2.53 ± 0.13
NIYLFMLMWDWTSYMALCCV | 3.94 ± 0.081
NKANLLYSPLLCLMAVHRMY | inactive
NKMEDHGMWDLIAYRGVIPL | -0.269 ± 0.22
NKVAKLDFFFLKGPAFRNKA | inactive
NLARYLLRKELARYFMSQ | -0.578 ± 0.41
NLCSKRRNL | -0.927 ± 0.78
NLFKDTISSLHNGIETIAPF | -0.82 ± 0.61
NLFLFVRGLGRGWSWWWEVR | 0.415 ± 0.8
NLHFCVQKSGESASRVVHHA | 0.958 ± 0.46
NLHLSGKMGSPTFRVRIYAH | inactive
NLILYPRHDNYQSS | inactive
NLMIKCVGR | -1.05 ± 0.76
NLMVHVFAAVMGINDLKC | 1.41 ± 0.18
NLNIFGLAMLCNRRGAYMRK | 6.829 ± 0.039
NLNPRCIACLQQPTFHMKMA | -0.101 ± 0.32
NLPIGLCSAGRFLGNNL | 0.123 ± 1
NLPLL | -0.027 ± 0.54
NLQSTMMLYYCFRVMMLLAW | -0.762 ± 0.38
NLRSLECLCMRCK | -0.145 ± 0.79
NLSRV | -0.741 ± 0.34
NLTNRYFNFSRTEPCNKYLT | 0.895 ± 0.81
NLVTFVWKRYLINIISVTKD | -1.51 ± 1.1
NMPFYRFAKRTWFRNPQSFV | -1.19 ± 1
NMPHPHEFIRSPCICLRHVV | inactive

Substance | amyloid nucleation score
NMRSNRVSLVPDGMLRLSAN | 1.39 ± 0.28
NMSLHRAILGFKAATIMRSL | -0.821 ± 1.1
NMYFEVALFT | -1.22 ± 0.64
NNIGS | inactive
NNIVIYDDLYNSMMALLWS | -1.25 ± 0.64
NNLCQ | -0.1 ± 0.32
NNSMYILYSGYTFGCYTRGL | 6.38 ± 0.066
NNVPCRSIADVYALEFLYAS | inactive
NPALSSWAEGSTP | 0.299 ± 0.61
NPRTQF | -0.108 ± 0.28
NPVINT | -0.271 ± 0.46
NQFNVFFASVVLVVGCICNH | 7.622 ± 0.029
NQGIKRRLFHNWLNRGRLLF | inactive
NQITDMLIFWFVGIRWFYSE | 0.679 ± 0.81
NQLRVLMTFFWPGMLNTPAV | -0.089 ± 1.1
NQMYQNE | -0.352 ± 0.45
NQNVSLGVTMCFNSNYDRQG | 7.53 ± 0.081
NQTPLMLACSADFHSISSWT | 0.365 ± 0.4
NRCWGDHEV | 0.435 ± 0.39
NRCYHFRDCQVYLTQDASWA | 8.515 ± 0.048
NREANLDDWLGRGQFSMIWW | -0.287 ± 0.79
NREFCFFVSDVKIPYTPCVP | -0.609 ± 0.32
NRGEDSPSYPGCHHMKLCIC | inactive
NRGISLGIHLRPGCMCAAHR | 0.005 ± 1
NRIGDIGFSPNMCQAPNDVD | 0.095 ± 0.53

Substance | amyloid nucleation score
NRKTIIVEPTNACRS | 0.775 ± 0.29
NRKWIDRLVYKGNNPYHGEV | 0.906 ± 0.57
NRLLSVSEFAMDTRMRQEEA | 1.01 ± 0.36
NRLWHPQCLWAFLNIRNPQL | 0.286 ± 0.48
NRNHMCRSCYMGWFRGRAKA | -1.04 ± 0.42
NRSHCIVVQLLRCFGYVPYG | inactive
NRSREELYARNKQYFSFI | -0.986 ± 0.76
NRSTDAYFIILHICYTNGVY | -0.429 ± 0.61
NRVFVVND | 1.4 ± 0.2
NRYYYISSQGDDMQAGCFHY | -0.963 ± 1.1
NSASLFFS | 0.27 ± 0.17
NSIESNSCKWVRNVCTANSG | -0.587 ± 0.76
NSLRCSLIWMGQLPLSGTHV | inactive
NSMNVGSFRSSEWLVLFENV | -0.453 ± 1.1
NSNGTFGQCLVM | -0.293 ± 0.5
NSPNCDHASRKLIHR | 0.07 ± 0.61
NSRIL | inactive
NSRISKNNLSRSLT | -0.196 ± 0.56
NSRLMMCEIPERCM | 0.512 ± 0.28
NSRNSSYKWFSSSFVHVADF | 1.71 ± 0.088
NSSPTSFLLIMSLNCCICVN | 8.228 ± 0.024
NSSVW | -1.01 ± 0.48
NSVMIDTDVKFAFFRSET | inactive
NSVSCANYTLHPIAMDWNGP | inactive
NSYIRHSFLQTRFISTNV | -0.306 ± 0.36

Substance | amyloid nucleation score
NTGVIYDAT | -0.307 ± 0.63
NTIMFEFICSIGITVYD | 1.33 ± 0.21
NTLSR | 5.654 ± 0.05
NTMMGV | -0.724 ± 0.64
NTMTSHMFENNRSIVTYLDV | -0.718 ± 0.76
NTNASDWRGAMLLSCMRFYS | -0.257 ± 0.42
NTNRVVWVVLAMKI | 0.086 ± 0.77
NTTMWGHVYMHLANMYTEFC | inactive
NTVKKLHLLQHHRVYVCATT | -0.965 ± 0.78
NTVWSFSSEWLFKQQLVCVR | 0.091 ± 0.53
NVGSVKHGS | 0.531 ± 0.57
NVGTEFVWIPYFYSAS | 0.716 ± 0.66
NVIRHLPPSYWRSLHSQMFP | inactive
NVLCKRVMMV | 0.384 ± 0.66
NVRDSYVNNCMTKGPRLNGV | -0.686 ± 0.34
NVWILNNYGQCIKS | 5.254 ± 0.023
NVYSAYNLACFALLYCLLIW | 0.691 ± 0.8
NWIDVLFKCKC | -0.156 ± 0.62
NWIQRQVL | inactive
NWLIMYNFAR | inactive
NWPETT | 2.48 ± 0.19
NWSVILYIRACTASNIEWLS | 1.52 ± 0.44
NWTLYFDNRGRVLNTYSTRY | 7.718 ± 0.031
NWVPLLFDY | inactive
NYAQATRMFFNLMKSWLKMR | -1.02 ± 1.1
